According to the supplement of paper PMC9112550, “Optimization of the antimicrobial peptide Bac7 by deep mutational scanning” (BMC Biology, 2022):

Test system: Escherichia coli TOP10
Assay: shrunken log2 fold change of peptide-encoding DNA abundance (4.5 h post-induction vs induction); higher = less antimicrobial activity (less host growth inhibition)
Details: time post-induction: 4.5 h; library: site-saturation at positions 5, 18, 19, 20
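Further: peptides expressed intracellularly from a pBAD plasmid library in pooled LB shake-flask culture, induced with 0.3% L-arabinose, DNA abundance read by NGS, three biological replicates, DESeq2 with apeglm shrinkage.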

| Sequence | shrunken log2 fold change |
| --- | --- |
| RRIRCRPPRLPRPRPRPNVRPRP | -0.000423 |
| RRIRMRPPRLPRPRPRPTTGPRP | 0.467 |
| RRIRIRPPRLPRPRPRPPNQPRP | -0.0959 |
| RRIRFRPPRLPRPRPRPKDKPRP | -0.223 |
| RRIRPRPPRLPRPRPRPEGDPRP | 0.39 |
| RRIRSRPPRLPRPRPRPWWTPRP | -0.127 |
| RRIRLRPPRLPRPRPRPHRLPRP | 0.166 |
| RRIRDRPPRLPRPRPRPFCHPRP | -0.00713 |
| RRIRVRPPRLPRPRPRPEPNPRP | 0.19 |
| RRIRHRPPRLPRPRPRPLCWPRP | -0.0222 |
| RRIRSRPPRLPRPRPRPNVPPRP | -0.131 |
| RRIRSRPPRLPRPRPRPGVPPRP | 0.318 |
| RRIRMRPPRLPRPRPRPNNIPRP | -0.564 |
| RRIRCRPPRLPRPRPRPRGKPRP | 0.777 |
| RRIRNRPPRLPRPRPRPGGVPRP | 0.239 |
| RRIRDRPPRLPRPRPRPVWTPRP | 0.0494 |
| RRIRQRPPRLPRPRPRPAMVPRP | 0.206 |
| RRIRNRPPRLPRPRPRPVSFPRP | 0.0749 |
| RRIRDRPPRLPRPRPRPKWFPRP | -0.0316 |
| RRIRPRPPRLPRPRPRPVEVPRP | -0.0864 |
| RRIRLRPPRLPRPRPRPIEMPRP | -0.0708 |
| RRIRNRPPRLPRPRPRPLSKPRP | -0.176 |
| RRIRQRPPRLPRPRPRPPVYPRP | -0.0643 |
| RRIRERPPRLPRPRPRPKYVPRP | -0.475 |
| RRIRGRPPRLPRPRPRPHVWPRP | 0.201 |

| Sequence | shrunken log2 fold change |
| --- | --- |
| RRIRVRPPRLPRPRPRPILQPRP | -0.399 |
| RRIRFRPPRLPRPRPRPERYPRP | 0.0915 |
| RRIRLRPPRLPRPRPRPWMRPRP | 0.892 |
| RRIRERPPRLPRPRPRPGPPPRP | 0.317 |
| RRIRCRPPRLPRPRPRPDSAPRP | -0.181 |
| RRIRGRPPRLPRPRPRPCTAPRP | 0.875 |
| RRIRWRPPRLPRPRPRPSNFPRP | -0.391 |
| RRIRARPPRLPRPRPRPDHLPRP | -0.0183 |
| RRIRIRPPRLPRPRPRPEWNPRP | -0.332 |
| RRIRGRPPRLPRPRPRPMQKPRP | 0.61 |
| RRIRARPPRLPRPRPRPETCPRP | 0.331 |
| RRIRTRPPRLPRPRPRPEDQPRP | 0.112 |
| RRIRWRPPRLPRPRPRPMREPRP | 1.09 |
| RRIRDRPPRLPRPRPRPYWLPRP | -0.236 |
| RRIRQRPPRLPRPRPRPQMKPRP | -0.264 |
| RRIRGRPPRLPRPRPRPMRWPRP | 0.844 |
| RRIRSRPPRLPRPRPRPCSMPRP | -0.441 |
| RRIRGRPPRLPRPRPRPMNGPRP | 0.00709 |
| RRIRERPPRLPRPRPRPRTSPRP | 0.0838 |
| RRIRSRPPRLPRPRPRPLWSPRP | -0.0384 |
| RRIRHRPPRLPRPRPRPYSCPRP | -0.0837 |
| RRIRGRPPRLPRPRPRPQWGPRP | 0.376 |
| RRIRERPPRLPRPRPRPNELPRP | -0.0227 |
| RRIRRRPPRLPRPRPRPSKGPRP | -0.518 |
| RRIRKRPPRLPRPRPRPVICPRP | 0.115 |

| Sequence | shrunken log2 fold change |
| --- | --- |
| RRIRVRPPRLPRPRPRPSCLPRP | -0.618 |
| RRIRYRPPRLPRPRPRPGSFPRP | -0.0331 |
| RRIRRRPPRLPRPRPRPVCTPRP | 0.575 |
| RRIRARPPRLPRPRPRPFRNPRP | -0.575 |
| RRIRQRPPRLPRPRPRPFGVPRP | 0.0831 |
| RRIRARPPRLPRPRPRPQATPRP | 0.389 |
| RRIRCRPPRLPRPRPRPYKDPRP | -0.492 |
| RRIRNRPPRLPRPRPRPLYVPRP | -0.641 |
| RRIRVRPPRLPRPRPRPMNMPRP | -0.426 |
| RRIRMRPPRLPRPRPRPITCPRP | -0.0534 |
| RRIRMRPPRLPRPRPRPIPQPRP | 0.256 |
| RRIRDRPPRLPRPRPRPQHCPRP | 0.0461 |
| RRIRIRPPRLPRPRPRPWGEPRP | -0.0259 |
| RRIRHRPPRLPRPRPRPVRSPRP | 0.172 |
| RRIRPRPPRLPRPRPRPGETPRP | 0.117 |
| RRIRPRPPRLPRPRPRPPMTPRP | 0.0831 |
| RRIRKRPPRLPRPRPRPDRCPRP | 0.00281 |
| RRIRPRPPRLPRPRPRPYMTPRP | -0.227 |
| RRIRWRPPRLPRPRPRPGKYPRP | -0.227 |
| RRIRKRPPRLPRPRPRPGNPPRP | 0.85 |
| RRIRCRPPRLPRPRPRPIIIPRP | -0.816 |
| RRIRCRPPRLPRPRPRPCRTPRP | -0.168 |
| RRIRHRPPRLPRPRPRPHNIPRP | -0.209 |
| RRIRLRPPRLPRPRPRPSFSPRP | -0.365 |
| RRIRFRPPRLPRPRPRPGFIPRP | -0.257 |

| Sequence | shrunken log2 fold change |
| --- | --- |
| RRIRSRPPRLPRPRPRPHCQPRP | -0.159 |
| RRIRRRPPRLPRPRPRPATDPRP | 0.204 |
| RRIRMRPPRLPRPRPRPNFHPRP | -0.0453 |
| RRIRFRPPRLPRPRPRPTADPRP | 0.359 |
| RRIRERPPRLPRPRPRPSDLPRP | -0.151 |
| RRIRLRPPRLPRPRPRPTCFPRP | -0.156 |
| RRIRPRPPRLPRPRPRPRELPRP | 0.39 |
| RRIRTRPPRLPRPRPRPQAWPRP | 4.37 |
| RRIRERPPRLPRPRPRPCIEPRP | -0.155 |
| RRIRHRPPRLPRPRPRPVVIPRP | -0.759 |
| RRIRARPPRLPRPRPRPHICPRP | -0.104 |
| RRIRQRPPRLPRPRPRPETVPRP | -0.0886 |
| RRIRWRPPRLPRPRPRPNKIPRP | -0.432 |
| RRIRRRPPRLPRPRPRPMNTPRP | -0.171 |
| RRIRNRPPRLPRPRPRPNRIPRP | -0.233 |
| RRIRCRPPRLPRPRPRPPGLPRP | 0.72 |
| RRIRPRPPRLPRPRPRPTRCPRP | 0.279 |
| RRIRYRPPRLPRPRPRPLYPPRP | -0.929 |
| RRIRRRPPRLPRPRPRPFASPRP | -0.0314 |
| RRIRMRPPRLPRPRPRPASAPRP | 1.09 |
| RRIRERPPRLPRPRPRPTACPRP | -0.134 |
| RRIRIRPPRLPRPRPRPTMQPRP | 0.0261 |
| RRIRRRPPRLPRPRPRPGVFPRP | 0.278 |
| RRIRRRPPRLPRPRPRPKVGPRP | -0.119 |
| RRIRQRPPRLPRPRPRPPKKPRP | -0.0474 |

| Sequence | shrunken log2 fold change |
| --- | --- |
| RRIRCRPPRLPRPRPRPHTMPRP | -0.371 |
| RRIRQRPPRLPRPRPRPPPTPRP | 0.913 |
| RRIRNRPPRLPRPRPRPWPCPRP | -0.185 |
| RRIRERPPRLPRPRPRPIIVPRP | -0.149 |
| RRIRSRPPRLPRPRPRPQHCPRP | -0.0942 |
| RRIRFRPPRLPRPRPRPPSLPRP | -0.112 |
| RRIRIRPPRLPRPRPRPPGEPRP | 0.0604 |
| RRIRFRPPRLPRPRPRPPCGPRP | 0.362 |
| RRIRCRPPRLPRPRPRPFTDPRP | -0.182 |
| RRIRTRPPRLPRPRPRPSNNPRP | -0.639 |
| RRIRERPPRLPRPRPRPPAHPRP | 0.269 |
| RRIRERPPRLPRPRPRPFEKPRP | 0.00177 |
| RRIRPRPPRLPRPRPRPMNNPRP | -0.916 |
| RRIRDRPPRLPRPRPRPKTEPRP | -0.0167 |
| RRIRVRPPRLPRPRPRPTADPRP | 0.27 |
| RRIRSRPPRLPRPRPRPMHVPRP | -0.00553 |
| RRIRCRPPRLPRPRPRPNINPRP | -0.181 |
| RRIRFRPPRLPRPRPRPPQCPRP | 0.237 |
| RRIRIRPPRLPRPRPRPKQWPRP | -0.0255 |
| RRIRYRPPRLPRPRPRPVVQPRP | 0.0013 |
| RRIRTRPPRLPRPRPRPASAPRP | 0.916 |
| RRIRSRPPRLPRPRPRPFCIPRP | -0.316 |
| RRIRSRPPRLPRPRPRPGYKPRP | -0.084 |
| RRIRGRPPRLPRPRPRPYSDPRP | -0.11 |
| RRIRKRPPRLPRPRPRPCNVPRP | -0.192 |

| Sequence | shrunken log2 fold change |
| --- | --- |
| RRIRGRPPRLPRPRPRPCYMPRP | -0.328 |
| RRIRDRPPRLPRPRPRPITEPRP | -0.0351 |
| RRIRGRPPRLPRPRPRPPTYPRP | 0.206 |
| RRIRPRPPRLPRPRPRPEIIPRP | -0.0816 |
| RRIRYRPPRLPRPRPRPPWCPRP | -0.338 |
| RRIRKRPPRLPRPRPRPMESPRP | 0.0143 |
| RRIRTRPPRLPRPRPRPFHSPRP | -0.137 |
| RRIRARPPRLPRPRPRPYRPPRP | -0.179 |
| RRIRNRPPRLPRPRPRPLCGPRP | -0.13 |
| RRIRCRPPRLPRPRPRPWNIPRP | 0.0152 |
| RRIRQRPPRLPRPRPRPIMLPRP | -0.433 |
| RRIRARPPRLPRPRPRPFFQPRP | 0.107 |
| RRIRIRPPRLPRPRPRPPIMPRP | -0.494 |
| RRIRQRPPRLPRPRPRPRKTPRP | 0.00489 |
| RRIRVRPPRLPRPRPRPNMAPRP | -0.38 |
| RRIRARPPRLPRPRPRPMCHPRP | 0.294 |
| RRIRRRPPRLPRPRPRPREKPRP | 0.0627 |
| RRIRIRPPRLPRPRPRPAPCPRP | -0.0838 |
| RRIRNRPPRLPRPRPRPGVSPRP | -0.279 |
| RRIRFRPPRLPRPRPRPYLGPRP | -0.11 |
| RRIRTRPPRLPRPRPRPRHSPRP | -0.106 |
| RRIRFRPPRLPRPRPRPTHPPRP | -0.0806 |
| RRIRERPPRLPRPRPRPKEYPRP | -0.0204 |
| RRIRWRPPRLPRPRPRPIVVPRP | -0.0496 |
| RRIRRRPPRLPRPRPRPGCMPRP | 0.835 |
